# Bridges are numbered along the chain shown (N, C = ends). [ ]: non-standard residue; d: D form. Dab = NCC[C@H](N)C(=O)O
# T1: Formyl-Peptide Receptor 1 (UniProt P21462 1-350, limits assumed)
# T1 sequence (looked up): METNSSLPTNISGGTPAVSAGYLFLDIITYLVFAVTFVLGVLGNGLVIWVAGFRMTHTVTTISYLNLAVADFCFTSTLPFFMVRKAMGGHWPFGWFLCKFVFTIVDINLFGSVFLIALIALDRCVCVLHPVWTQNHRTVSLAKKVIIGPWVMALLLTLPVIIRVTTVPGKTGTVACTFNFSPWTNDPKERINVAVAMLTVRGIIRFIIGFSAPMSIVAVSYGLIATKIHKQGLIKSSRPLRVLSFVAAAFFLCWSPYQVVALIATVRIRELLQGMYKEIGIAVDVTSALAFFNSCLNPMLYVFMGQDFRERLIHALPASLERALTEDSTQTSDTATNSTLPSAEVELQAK
# Molecular target: T1, Formyl-Peptide Receptor 1
# Assay: cell-based or functional assay
row,β-Arrestin IC50 [nM],Binder
1,68,cyclo(YHACWG[dP]WTICYEK[dP]P) (disulfide 4-11; SMILES CC[C@H](C)[C@@H]1NC(=O)[C@H]([C@@H](C)O)NC(=O)[C@H](Cc2c[nH]c3ccccc23)NC(=O)[C@H]2CCCN2C(=O)CNC(=O)[C@H](Cc2c[nH]c3ccccc23)NC(=O)[C@@H]2CSSC[C@H](NC1=O)C(=O)N[C@@H](Cc1ccc(O)cc1)C(=O)N[C@@H](CCC(=O)O)C(=O)N[C@@H](CCCCN)C(=O)N1CCC[C@@H]1C(=O)N1CCC[C@H]1C(=O)N[C@@H](Cc1ccc(O)cc1)C(=O)N[C@@H](Cc1c[nH]cn1)C(=O)N[C@@H](C)C(=O)N2) [cyclo(-Tyr-His-Ala-Cys-Trp-Gly-^DPro-Trp-Thr-Ile-Cys-Tyr-Glu-Lys-^DPro-Pro-)]
2,89,cyclo(YHWCWG[dP]WTICYQK[dP]P) (disulfide 4-11; SMILES CC[C@H](C)[C@@H]1NC(=O)[C@H]([C@@H](C)O)NC(=O)[C@H](Cc2c[nH]c3ccccc23)NC(=O)[C@H]2CCCN2C(=O)CNC(=O)[C@H](Cc2c[nH]c3ccccc23)NC(=O)[C@@H]2CSSC[C@H](NC1=O)C(=O)N[C@@H](Cc1ccc(O)cc1)C(=O)N[C@@H](CCC(N)=O)C(=O)N[C@@H](CCCCN)C(=O)N1CCC[C@@H]1C(=O)N1CCC[C@H]1C(=O)N[C@@H](Cc1ccc(O)cc1)C(=O)N[C@@H](Cc1c[nH]cn1)C(=O)N[C@@H](Cc1c[nH]c3ccccc13)C(=O)N2) [cyclo(-Tyr-His-Trp-Cys-Trp-Gly-^DPro-Trp-Thr-Ile-Cys-Tyr-Gln-Lys-^DPro-Pro-)]
3,71,cyclo(YHKCWG[dP]WTICYQK[dP]P) (disulfide 4-11; SMILES CC[C@H](C)[C@@H]1NC(=O)[C@H]([C@@H](C)O)NC(=O)[C@H](Cc2c[nH]c3ccccc23)NC(=O)[C@H]2CCCN2C(=O)CNC(=O)[C@H](Cc2c[nH]c3ccccc23)NC(=O)[C@@H]2CSSC[C@H](NC1=O)C(=O)N[C@@H](Cc1ccc(O)cc1)C(=O)N[C@@H](CCC(N)=O)C(=O)N[C@@H](CCCCN)C(=O)N1CCC[C@@H]1C(=O)N1CCC[C@H]1C(=O)N[C@@H](Cc1ccc(O)cc1)C(=O)N[C@@H](Cc1c[nH]cn1)C(=O)N[C@@H](CCCCN)C(=O)N2) [cyclo(-Tyr-His-Lys-Cys-Trp-Gly-^DPro-Trp-Thr-Ile-Cys-Tyr-Gln-Lys-^DPro-Pro-)]
4,144,cyclo([Dab]HKCHG[dP]WTICYEK[dP]E) (disulfide 4-11; SMILES CC[C@H](C)[C@@H]1NC(=O)[C@H]([C@@H](C)O)NC(=O)[C@H](Cc2c[nH]c3ccccc23)NC(=O)[C@H]2CCCN2C(=O)CNC(=O)[C@H](Cc2c[nH]cn2)NC(=O)[C@@H]2CSSC[C@H](NC1=O)C(=O)N[C@@H](Cc1ccc(O)cc1)C(=O)N[C@@H](CCC(=O)O)C(=O)N[C@@H](CCCCN)C(=O)N1CCC[C@@H]1C(=O)N[C@@H](CCC(=O)O)C(=O)N[C@@H](CCN)C(=O)N[C@@H](Cc1c[nH]cn1)C(=O)N[C@@H](CCCCN)C(=O)N2) [cyclo(-Dab-His-Lys-Cys-His-Gly-^DPro-Trp-Thr-Ile-Cys-Tyr-Glu-Lys-^DPro-Glu-)]
5,177,cyclo(YHWCHG[dP]WTICYQK[dP]P) (disulfide 4-11; SMILES CC[C@H](C)[C@@H]1NC(=O)[C@H]([C@@H](C)O)NC(=O)[C@H](Cc2c[nH]c3ccccc23)NC(=O)[C@H]2CCCN2C(=O)CNC(=O)[C@H](Cc2c[nH]cn2)NC(=O)[C@@H]2CSSC[C@H](NC1=O)C(=O)N[C@@H](Cc1ccc(O)cc1)C(=O)N[C@@H](CCC(N)=O)C(=O)N[C@@H](CCCCN)C(=O)N1CCC[C@@H]1C(=O)N1CCC[C@H]1C(=O)N[C@@H](Cc1ccc(O)cc1)C(=O)N[C@@H](Cc1c[nH]cn1)C(=O)N[C@@H](Cc1c[nH]c3ccccc13)C(=O)N2) [cyclo(-Tyr-His-Trp-Cys-His-Gly-^DPro-Trp-Thr-Ile-Cys-Tyr-Gln-Lys-^DPro-Pro-)]
6,63,cyclo(YHACWG[dP]WTICYQE[dP]P) (disulfide 4-11; SMILES CC[C@H](C)[C@@H]1NC(=O)[C@H]([C@@H](C)O)NC(=O)[C@H](Cc2c[nH]c3ccccc23)NC(=O)[C@H]2CCCN2C(=O)CNC(=O)[C@H](Cc2c[nH]c3ccccc23)NC(=O)[C@@H]2CSSC[C@H](NC1=O)C(=O)N[C@@H](Cc1ccc(O)cc1)C(=O)N[C@@H](CCC(N)=O)C(=O)N[C@@H](CCC(=O)O)C(=O)N1CCC[C@@H]1C(=O)N1CCC[C@H]1C(=O)N[C@@H](Cc1ccc(O)cc1)C(=O)N[C@@H](Cc1c[nH]cn1)C(=O)N[C@@H](C)C(=O)N2) [cyclo(-Tyr-His-Ala-Cys-Trp-Gly-^DPro-Trp-Thr-Ile-Cys-Tyr-Gln-Glu-^DPro-Pro-)]
7,132,cyclo(YHACHG[dP]WTICYQE[dP]P) (disulfide 4-11; SMILES CC[C@H](C)[C@@H]1NC(=O)[C@H]([C@@H](C)O)NC(=O)[C@H](Cc2c[nH]c3ccccc23)NC(=O)[C@H]2CCCN2C(=O)CNC(=O)[C@H](Cc2c[nH]cn2)NC(=O)[C@@H]2CSSC[C@H](NC1=O)C(=O)N[C@@H](Cc1ccc(O)cc1)C(=O)N[C@@H](CCC(N)=O)C(=O)N[C@@H](CCC(=O)O)C(=O)N1CCC[C@@H]1C(=O)N1CCC[C@H]1C(=O)N[C@@H](Cc1ccc(O)cc1)C(=O)N[C@@H](Cc1c[nH]cn1)C(=O)N[C@@H](C)C(=O)N2) [cyclo(-Tyr-His-Ala-Cys-His-Gly-^DPro-Trp-Thr-Ile-Cys-Tyr-Gln-Glu-^DPro-Pro-)]
8,178,cyclo(YHTCHG[dP]WTICYQK[dP]P) (disulfide 4-11; SMILES CC[C@H](C)[C@@H]1NC(=O)[C@H]([C@@H](C)O)NC(=O)[C@H](Cc2c[nH]c3ccccc23)NC(=O)[C@H]2CCCN2C(=O)CNC(=O)[C@H](Cc2c[nH]cn2)NC(=O)[C@@H]2CSSC[C@H](NC1=O)C(=O)N[C@@H](Cc1ccc(O)cc1)C(=O)N[C@@H](CCC(N)=O)C(=O)N[C@@H](CCCCN)C(=O)N1CCC[C@@H]1C(=O)N1CCC[C@H]1C(=O)N[C@@H](Cc1ccc(O)cc1)C(=O)N[C@@H](Cc1c[nH]cn1)C(=O)N[C@@H]([C@@H](C)O)C(=O)N2) [cyclo(-Tyr-His-Thr-Cys-His-Gly-^DPro-Trp-Thr-Ile-Cys-Tyr-Gln-Lys-^DPro-Pro-)]
9,35,cyclo(YHICHG[dP]WTICYQK[dP]P) (disulfide 4-11; SMILES CC[C@H](C)[C@@H]1NC(=O)[C@H](Cc2c[nH]cn2)NC(=O)[C@H](Cc2ccc(O)cc2)NC(=O)[C@@H]2CCCN2C(=O)[C@H]2CCCN2C(=O)[C@H](CCCCN)NC(=O)[C@H](CCC(N)=O)NC(=O)[C@H](Cc2ccc(O)cc2)NC(=O)[C@@H]2CSSC[C@H](NC1=O)C(=O)N[C@@H](Cc1c[nH]cn1)C(=O)NCC(=O)N1CCC[C@@H]1C(=O)N[C@@H](Cc1c[nH]c3ccccc13)C(=O)N[C@@H]([C@@H](C)O)C(=O)N[C@@H]([C@@H](C)CC)C(=O)N2) [cyclo(-Tyr-His-Ile-Cys-His-Gly-^DPro-Trp-Thr-Ile-Cys-Tyr-Gln-Lys-^DPro-Pro-)]
10,165,cyclo(EHKCHG[dP]WTICYEK[dP]P) (disulfide 4-11; SMILES CC[C@H](C)[C@@H]1NC(=O)[C@H]([C@@H](C)O)NC(=O)[C@H](Cc2c[nH]c3ccccc23)NC(=O)[C@H]2CCCN2C(=O)CNC(=O)[C@H](Cc2c[nH]cn2)NC(=O)[C@@H]2CSSC[C@H](NC1=O)C(=O)N[C@@H](Cc1ccc(O)cc1)C(=O)N[C@@H](CCC(=O)O)C(=O)N[C@@H](CCCCN)C(=O)N1CCC[C@@H]1C(=O)N1CCC[C@H]1C(=O)N[C@@H](CCC(=O)O)C(=O)N[C@@H](Cc1c[nH]cn1)C(=O)N[C@@H](CCCCN)C(=O)N2) [cyclo(-Glu-His-Lys-Cys-His-Gly-^DPro-Trp-Thr-Ile-Cys-Tyr-Glu-Lys-^DPro-Pro-)]
11,62,cyclo(YHACWG[dP]WTICYWK[dP]P) (disulfide 4-11; SMILES CC[C@H](C)[C@@H]1NC(=O)[C@H]([C@@H](C)O)NC(=O)[C@H](Cc2c[nH]c3ccccc23)NC(=O)[C@H]2CCCN2C(=O)CNC(=O)[C@H](Cc2c[nH]c3ccccc23)NC(=O)[C@@H]2CSSC[C@H](NC1=O)C(=O)N[C@@H](Cc1ccc(O)cc1)C(=O)N[C@@H](Cc1c[nH]c3ccccc13)C(=O)N[C@@H](CCCCN)C(=O)N1CCC[C@@H]1C(=O)N1CCC[C@H]1C(=O)N[C@@H](Cc1ccc(O)cc1)C(=O)N[C@@H](Cc1c[nH]cn1)C(=O)N[C@@H](C)C(=O)N2) [cyclo(-Tyr-His-Ala-Cys-Trp-Gly-^DPro-Trp-Thr-Ile-Cys-Tyr-Trp-Lys-^DPro-Pro-)]
12,76,cyclo(YHACWG[dP]WTICYQA[dP]P) (disulfide 4-11; SMILES CC[C@H](C)[C@@H]1NC(=O)[C@H]([C@@H](C)O)NC(=O)[C@H](Cc2c[nH]c3ccccc23)NC(=O)[C@H]2CCCN2C(=O)CNC(=O)[C@H](Cc2c[nH]c3ccccc23)NC(=O)[C@@H]2CSSC[C@H](NC1=O)C(=O)N[C@@H](Cc1ccc(O)cc1)C(=O)N[C@@H](CCC(N)=O)C(=O)N[C@@H](C)C(=O)N1CCC[C@@H]1C(=O)N1CCC[C@H]1C(=O)N[C@@H](Cc1ccc(O)cc1)C(=O)N[C@@H](Cc1c[nH]cn1)C(=O)N[C@@H](C)C(=O)N2) [cyclo(-Tyr-His-Ala-Cys-Trp-Gly-^DPro-Trp-Thr-Ile-Cys-Tyr-Gln-Ala-^DPro-Pro-)]
13,321,cyclo(YHECHG[dP]WTICYQK[dP]P) (disulfide 4-11; SMILES CC[C@H](C)[C@@H]1NC(=O)[C@H]([C@@H](C)O)NC(=O)[C@H](Cc2c[nH]c3ccccc23)NC(=O)[C@H]2CCCN2C(=O)CNC(=O)[C@H](Cc2c[nH]cn2)NC(=O)[C@@H]2CSSC[C@H](NC1=O)C(=O)N[C@@H](Cc1ccc(O)cc1)C(=O)N[C@@H](CCC(N)=O)C(=O)N[C@@H](CCCCN)C(=O)N1CCC[C@@H]1C(=O)N1CCC[C@H]1C(=O)N[C@@H](Cc1ccc(O)cc1)C(=O)N[C@@H](Cc1c[nH]cn1)C(=O)N[C@@H](CCC(=O)O)C(=O)N2) [cyclo(-Tyr-His-Glu-Cys-His-Gly-^DPro-Trp-Thr-Ile-Cys-Tyr-Gln-Lys-^DPro-Pro-)]
14,36,cyclo(YHACHG[dP]WTICYWK[dP]P) (disulfide 4-11; SMILES CC[C@H](C)[C@@H]1NC(=O)[C@H]([C@@H](C)O)NC(=O)[C@H](Cc2c[nH]c3ccccc23)NC(=O)[C@H]2CCCN2C(=O)CNC(=O)[C@H](Cc2c[nH]cn2)NC(=O)[C@@H]2CSSC[C@H](NC1=O)C(=O)N[C@@H](Cc1ccc(O)cc1)C(=O)N[C@@H](Cc1c[nH]c3ccccc13)C(=O)N[C@@H](CCCCN)C(=O)N1CCC[C@@H]1C(=O)N1CCC[C@H]1C(=O)N[C@@H](Cc1ccc(O)cc1)C(=O)N[C@@H](Cc1c[nH]cn1)C(=O)N[C@@H](C)C(=O)N2) [cyclo(-Tyr-His-Ala-Cys-His-Gly-^DPro-Trp-Thr-Ile-Cys-Tyr-Trp-Lys-^DPro-Pro-)]

# Reference: patent publication US9957297B2, “Template-fixed peptidomimetics as inhibitors of FPR1” (POLYPHOR AG, priority 2011, dated 2018)
